Patent US20230287068A1, “KERATIN BD-6, PREPARATION METHOD THEREFOR AND PHARMACEUTICAL COMPOSITION AND USE THEREOF” (INSTITUTE OF MATERIAL MEDICA, CHINESE ACADEMY OF MEDICAL …, priority 2019, published 2023)

Experiments:
[1] = test system: PLO-induced epilepsy in mice; test: Pilocarpine (PLO) induced convulsive epilepsy in mice; assay type: in vivo, ICR mice; parameters: mortality rate: unit not given here; settings: for Cases of deaths / Grade IV seizure rate / mortality rate / Cases of Grade IV / Grade II seizure incubation period / Grade III seizure incubation period / Grade IV seizure incubation period: PLO 225 mg/kg i.p.; for Cases of deaths / Grade IV seizure rate / mortality rate / Cases of Grade IV: 10 mice; for Cases of Grade IV: 30 min observation; for Grade II seizure incubation period / Grade III seizure incubation period / Grade IV seizure incubation period: mean±SEM; for Grade IV seizure incubation period: maximum 1800 seconds
Experimental: • Animals: male ICR mice; • Drugs: Pilocarpine HCl (PLO, pilocarpine, pilocarpine hydrochloride), Diazepam (diazepam tablets), protein BD-6. • Experiment grouping: • Model group: • Diazepam 2 mg/kg group; • Protein BD-6, 50 mg/kg group, 200 mg/kg group.
The drug was administered once in the afternoon the day before modeling, PLO-225 mg/kg (modeling agent) was injected intraperitoneally 1 hour after the test drug was administered intragastrically on the day of modeling. And positive drug can be administered once 20 minutes before modeling. Observe for 30 minutes after PLO injection.
Observation indicators: ①Seizure situation: the time of seizures from Grade II to Grade IV; ②the time to death.
(§1) Seizure grade: Refer to Racine grading standard: Grade 0: No response; Grade I: manifested as twitching of facial muscles or the corners of the mouth; Grade II: can nod; Grade III: twitching of one limb; Grade IV: rigidity or body twitching; Grade V: generalized epilepsy (generalized tonic seizures).
Count the number of Grade IV seizures and deaths in each group of mice in the experiment; Grade II, III and IV incubation period. […] Chi-square test was used for statistics of the number of cases. The mean value and standard error of the incubation period were calculated, and TTEST was used to compare the model group with other groups. P<0.05 was considered as a significant difference.

[2] = test system: acetic acid writhing of ICR mice; test: Acetic acid writhing test in ICR mice; assay type: in vivo; settings: for Frequency of writhing / Writhing incubation period: 0.6% acetic acid i.p., within 15 minutes
Experimental: • Animals: male ICR mice; • Drugs and reagents: aspirin, physiological saline, glacial acetic acid, protein BD-6. • Experiment grouping: • Model group; • Aspirin 300 mg/kg group; • Protein BD-6, 50 mg/kg group, 200 mg/kg group.
One day after the experimental animals adapt to the environment, Aspirin 300 mg/kg, protein BD-6 50 mg/kg, 200 mg/kg were given orally one hour in advance, and the administration volume was 10 ml/kg; Then, 0.6% acetic acid solution was injected intraperitoneally, and the incubation period (seconds) and frequency of writhing in the animal was observed within 15 minutes.
Calculate the mean and standard error of the data in each group. Compared with the model group by TTEST, P<0.05 was considered as statistically different.

[3] = test system: PTZ-induced epilepsy in mice; test: Pentylenetetrazole (PTZ) induced epilepsy in mice; assay type: in vivo, ICR mice; settings: for Cases of deaths / Grade IV seizure rate / mortality rate / Cases of Grade IV / Grade III seizure incubation period / Grade IV seizure incubation period: PTZ 65 mg/kg i.p.; for Cases of deaths / Grade IV seizure rate / mortality rate / Cases of Grade IV: 10 mice; for Cases of Grade IV: 15 min observation; for Grade III seizure incubation period / Grade IV seizure incubation period: mean±SEM; for Grade IV seizure incubation period: maximum 900 seconds
Experimental: • Animals: male ICR mice; • Medicines: Pentylenetetrazol (PTZ), Retigabine, Protein BD-6. • Experiment grouping: • Model group; • Retigabine 60 mg/kg group; • Protein BD-6, 50 mg/kg group, 200 mg/kg group;
The drug was administered once in the afternoon the day before modeling, On the day of modeling, PTZ-65 mg/kg (modeling agent) was injected intraperitoneal 1 hour after the test drug was administered intragastrically, and the positive drug can be administered once half an hour before modeling. Continue to observe for 15 minutes after injection of PTZ.
Observation index: ①Seizure situation: the time of seizures from Grade III to Grade VI; ②Death situation
as §1
Count the cases of seizures and deaths in each group of mice in the experiment; Grade III and IV incubation period. The incubation period of mice that have not attacked to Grade IV is recorded as the maximum of 900 seconds. Chi-square test was used for statistics of the number of cases. Calculate the mean and standard error of the incubation period. Use TTEST to compare the model group with other groups, and P<0.05 is considered as a significant difference.

[4] = test system: yeast-induced fever model in rats; test: Yeast-induced fever model in SD rats; assay type: in vivo; settings: for Body temperature 2 hours after modeling / Body temperature 4 hours after modeling / Body temperature 6 hours after modeling / Body temperature 8 hours after modeling: 20% yeast s.c., SD rats
Experimental: • Medicines: yeast (OXOID LP0021), aspirin (SIGMA A2093), protein BD-6; • Instruments: electronic balance (SARTORIUS BP121S type), electronic clinical thermometer (CITIZEN CT-513W type). • Experiment grouping: • Normal control group; • Model group: yeast fever model; • Positive control group: Aspirin 300 mg/kg group; • Protein BD-6, 10 mg/kg group, 50 mg/kg group.
Preparation of experimental animals: After the experimental animals adapt to the experimental environment (temperature 22° C.±2° C., relative humidity 50%±2%) for 1 day. Pre-adaptation to measure rectal temperature at 8:00 and 15:00, rats were fasted and water was taken freely 12 h before experiment, and let the animal to empty its feces before measuring the rectal temperature. Apply petroleum jelly to the electronic thermometer probe before each temperature measurement. Insert the rat rectum 2 cm (can be marked at 2 cm to ensure that the depth of each insertion is consistent), and record the body temperature after the reading is stable.
Subcutaneous injection of dry yeast to replicate rat fever model: The body temperature of the rats was measured before modeling. Qualified rats with a body temperature of 36.2-37.3° C. were selected and randomly divided into groups with 8 rats in each group. After oral administration of aspirin and different doses of protein BD-6, 20% yeast suspension (10 ml/kg) was injected subcutaneously immediately, and the normal control group was injected intraperitoneally with an equal volume of normal saline. The body temperatures of the rats were monitored after 2 hours for a total of 8 hours.
According to the body temperature measured at each time point on the day of the experiment, calculate the mean, standard deviation and standard error of the body temperature of each group of rats. The data of each group was compared with TTEST, and P<0.05 was considered as a significant difference.

B1: BD-6: recombinant keratin with the amino acid sequence SEQ ID NO:1, expressed in E. coli, about 45 kD; protein of Example 4 (protein, listed as Bos taurus)
chain: MTTTIRHFSSGSIKGSSGLAGGSSRSCRVSGSLGGGSCRLGSAGGLGSGLGGSSYSSCYSFGSGGSYGSGGYVSGGYGGGFGGVDGLLVGGEKATMQNLNDRLASYLDKVRALEEANTELELKIRDWYQKQAPGPAPDYSSYFKTIEDLRNKIHTATVDNANLLLQIDNARLAADDFRTKFETEQALRVSVEADINGLRRVLDELTLARADLEMQIENLKEELAYLRKNHEEEMKALRGQVGGEINVEMDAAPGVDLSRILNEMRDQYEKMAEKNRKDAEDWFFSKTEELNREVATNSELVQSGKSEISELRRTLQALEIELQSQLSMKASLEGSLAETENRYCMQLSQIQGLIGSVEEQLAQLRCEMEQQNQEYKILLDVKTRLEQEIATYRRLLEGEDAHLTQYKTKEPVTTRQVRTIVEEVQDGRVISSREQVHQTSH
- Cases of deaths ([1]; BD-6 50 mg/kg intragastric): 0
- Grade IV seizure rate ([1]; BD-6 50 mg/kg intragastric): 40%
- mortality rate ([1]; BD-6 50 mg/kg intragastric): 0
- Cases of Grade IV ([1]; BD-6 50 mg/kg intragastric): 4
- Grade II seizure incubation period ([1]; BD-6 50 mg/kg intragastric): 110±7^∗ s
- Grade III seizure incubation period ([1]; BD-6 50 mg/kg intragastric): 169±9^∗ s
- Grade IV seizure incubation period ([1]; BD-6 50 mg/kg intragastric): 1439±155^∗ s
- Incubation period of epilepsy Grade II, III and IV vs model group (in words) ([1]; BD-6 50 mg/kg, PLO model): statistically different from the model group
- Cases of deaths ([1]; BD-6 200 mg/kg intragastric): 0
- Grade IV seizure rate ([1]; BD-6 200 mg/kg intragastric): 50%
- mortality rate ([1]; BD-6 200 mg/kg intragastric): 0
- Cases of Grade IV ([1]; BD-6 200 mg/kg intragastric): 5
- Grade II seizure incubation period ([1]; BD-6 200 mg/kg intragastric): 99 ± 6 s
- Grade III seizure incubation period ([1]; BD-6 200 mg/kg intragastric): 157 ± 8 s
- Grade IV seizure incubation period ([1]; BD-6 200 mg/kg intragastric): 1279 ± 181 s
- Frequency of writhing ([2]; BD-6 50 mg/kg oral): 31.1±3.7 times
- Writhing incubation period ([2]; BD-6 50 mg/kg oral): 220.7 ± 22.2 s
- Frequency of writhing ([2]; BD-6 200 mg/kg oral): 18.6±2.7^∗∗ times
- Writhing incubation period ([2]; BD-6 200 mg/kg oral): 193.2 ± 17.3 s
- Times of writhing vs model group (in words) ([2]; BD-6 200 mg/kg, P<0.05): can significantly reduce the times of writhing in mice
- Incubation period of Grade III epilepsy vs model group (in words) ([3]; BD-6 50 mg/kg and 200 mg/kg, PTZ model): have statistical differences compared with the model group
- Cases of deaths ([3]; BD-6 50 mg/kg intragastric): 0
- Grade IV seizure rate ([3]; BD-6 50 mg/kg intragastric): 60%
- mortality rate ([3]; BD-6 50 mg/kg intragastric): 0%
- Cases of Grade IV ([3]; BD-6 50 mg/kg intragastric): 6
- Grade III seizure incubation period ([3]; BD-6 50 mg/kg intragastric): 74±5^∗∗ s
- Grade IV seizure incubation period ([3]; BD-6 50 mg/kg intragastric): 440 ± 128 s
- Cases of deaths ([3]; BD-6 200 mg/kg intragastric): 1
- Grade IV seizure rate ([3]; BD-6 200 mg/kg intragastric): 90%
- mortality rate ([3]; BD-6 200 mg/kg intragastric): 10%
- Cases of Grade IV ([3]; BD-6 200 mg/kg intragastric): 9
- Grade III seizure incubation period ([3]; BD-6 200 mg/kg intragastric): 69±6^∗ s
- Grade IV seizure incubation period ([3]; BD-6 200 mg/kg intragastric): 201 ± 81 s
- Body temperature 2 hours after modeling ([4]; BD-6 10 mg/kg oral): 37.0±0.1 °C
- Body temperature 4 hours after modeling ([4]; BD-6 10 mg/kg oral): 37.4±0.1 °C
- Body temperature 6 hours after modeling ([4]; BD-6 10 mg/kg oral): 37.3±0.09 °C
- Body temperature 8 hours after modeling ([4]; BD-6 10 mg/kg oral): 37.5±0.1 °C
- Body temperature 2 hours after modeling ([4]; BD-6 50 mg/kg oral): 37.0±0.2 °C
- Body temperature 4 hours after modeling ([4]; BD-6 50 mg/kg oral): 37.4±0.1 °C
- Body temperature 6 hours after modeling ([4]; BD-6 50 mg/kg oral): 37.4±0.1 °C
- Body temperature 8 hours after modeling ([4]; BD-6 50 mg/kg oral): 37.3±0.1 °C
- Effect on increase in body temperature (in words) ([4]; BD-6 10 and 50 mg/kg, most time points after modeling, P<0.05 vs model group): can inhibit the increase in body temperature of model rats to varying degrees
